# Data as given in US20250051443A1 (NATIONAL RESEARCH COUNCIL OF CANADA, published 2025).
# Legend:
# [1] = molecular target: T1, Cynomolgus CD3 (Cynomolgus, UniProt Q95LI5 22-198; Q95LI7 23-181; Q95LI8 22-171); test: apparent KD (KDapp), flow cytometry titration on cynomolgus HSC-F T cell line
# T1 construct: whole, on cells; also called CD3 on Cynomolgus PBMCs; CD3 on HSC-F Cynomolgus T cell line
# Method: To characterize potential cross-reactivity of the anti-human CD3 mAbs to NHP T cells, dose response flow cytometry titration studies were performed on both freshly obtained Cynomolgus PBMCs (Comparative Medicine and Animal Resources Centre—McGill University) or the Cynomolgus derived T cell line, HSC-F (Non-Human Primate Reagent Resource—NIH). Binding studies on fresh Cynomolgus PBMCs was performed on a subset of anti-CD3 mAbs (FIG. 4) whereas the Herpesvirus saimiri immortalized Cynomolgus T cell line HSC-F was employed for further evaluations (FIGS. 5A to 5C). KDapp values were calculated using a non-linear regression model of one-site binding with Hill slope (GraphPad Prism) and tabulated (Table 3b). Similar KDapp values for anti-CD3 mAb 1E2 obtained from binding to fresh Cynomolgus PBMCs (KDapp=0.28 nM) or the HSC-F T cell line (KDapp=0.39 nM) indicated the HSC-F cell line was a suitable surrogate for ex vivo NHP T cells.
# HSC-F T cells obtained from the Non-Human Primate Reagent Resource (NIH) were maintained in culture in RPMI media containing 20% FBS and 40 IU/mL recombinant human IL2. 100K HSC-F cells in logarithmic cell growth were treated with graded doses of the anti-CD3 mAbs starting at 100 nM in staining buffer (SB; PBS/1% BSA/0.01% NaN3) for 2 hours at 4° C. in 96 w V-bottom plates. Following plate washing with SB, the cell pellets were resuspended with 25 μL of goat (Fab′)₂ anti-mouse IgG (H+L)− APC secondary antibody (final 5 μg/mL), incubated for 30 minutes at 4° C., followed by flow cytometry analysis. The commercial NHP cross-reactive SP34.2 anti-CD3 mAb (BD Biosciences), recombinant anti-human OKT-3 IgG2b (in house produced) and non-specific mIgG were employed as controls. 20K live events were acquired on a BD LSRFortessa flow analyzer and mean fluorescence intensities (MFI) calculated after subtraction of secondary antibody alone values. Using GraphPad Prism software, the data were analyzed using a one site specific binding with Hill slope non-linear regression model to calculate KDapp and BMax values (See Table 2).
# [2] = molecular target: T2, human CD3 (human, UniProt P07766 23-207; P09693 23-182; P04234 22-171); test: flow competition on Jurkat, 100 nM unlabeled mAb; competitor AF488-SK7 1.5 nM
# T2 construct: whole, on cells; also called CD3 on Jurkat T cells; CD3 on primary human T cells
# Method: (§1) In order to evaluate whether anti-CD3 monoclonal antibodies bind to the same epitope region, flow cytometry competition experiments on Jurkat cells were performed.
# (§2) To that effect, a fixed concentration of the indicated AF488-labeled mAb were incubated with 100 nM of unlabeled monoclonal antibodies to assess if their binding capacity was impaired in presence of unlabeled mAbs. […] The AF488-OKT3 mIgG2b was labeled in-house using AlexaFluor488 protein labelling kit (Invitrogen #A10235) following manufacturer's instruction. The free dye removal step was done using Zeba™ Spin Desalting Columns, 7K MWCO (Thermo Scientific #89890). The final product was analyzed by UPLC-SEC to ensure the integrity of the labeled mAb.
# [3] = molecular target: T2, human CD3; test: flow cytometry, hybridoma supernatant on CD3+ Jurkat cells
# Method: Cells were stained with either negative control mouse IgG (Jackson Immunoresearch cat #115-000-003) or an anti-GFP 3E6 mAb supernatant or tested hybridoma supernatant. Specific binding was reflected by the increase in the mean fluorescent intensity of antibody binding to Jurkat T-cells (FIGS. 1A to 1F, grey histograms) compared to the Jurkat CD3 negative cell line J.RT3-T3.5 (FIGS. 1A to 1F, open histograms). AF488 labeled positive control mAb OKT3 was also analyzed.
# [4] = molecular target: T2, human CD3; test: flow competition on Jurkat, 100 nM unlabeled mAb; competitor AF488-UCHT1 5 nM
# Method: as §1, §2
# [5] = molecular target: T2, human CD3; test: flow competition on Jurkat, 100 nM unlabeled mAb; competitor AF488-OKT-3 mIgG2b 1.5 nM
# Method: as §1, §2
# [6] = molecular target: T2, human CD3; test: apparent KD (KDapp), flow cytometry titration on Jurkat cells
# Method: Unless otherwise stated, all media are kept are 4° C. and all incubations are performed on wet ice. Exponentially growing Jurkat cells were centrifuged and resuspended in complete medium at a cell density of 2×10⁶ cells/mL. Fifty μL/well of cells were distributed in a polypropylene v-bottom 96 well plate and serial 1/3 dilutions of purified mAbs starting at 300 nM were added and incubated for 2 hours. Cells were washed twice by centrifugation and further incubated with a FITC labeled F(ab′)2 goat anti-mouse antibody (Fc specific, #115-096-071, Jackson Immunoresearch, Cedarlane, Burlington, ON) for an hour. Cells were washed and re-suspended in medium containing Propidium iodide to exclude dead cells from analysis. Samples were filtered through a 60 μm nylon mesh filter plate (Millipore, Ireland) to remove cell aggregates. Flow cytometry analyses were performed on 2,000 viable single-cells events gated on forward scattering, side scattering parameters and propidium iodide dye exclusion using a BD-LSRFortessa flow cytometer (Becton-Dickinson Biosciences, CA, USA) and a standard filter set using BD FACSDiva™ acquisition software, according to manufacturer's instructions.
# [7] = molecular target: T2, human CD3; test: cell-based or functional assay
# [8] = molecular target: T2, human CD3; test: apparent KD (KDapp), flow cytometry titration on purified primary human T cells
# Method: The binding characteristics of the purified anti-CD3 mAbs were assessed in titration studies on purified human primary T cells from different donor samples. Fresh ex vivo peripheral blood mononuclear cells (PBMCs) were obtained via density centrifugation over Ficoll-Paque using standard procedures and untouched T cell fractions obtained from PBMCs by negative pan-T cell selection and magnetic cell sorting. Starting from 300 nM concentrations of the anti-CD3 mAbs, eight point binding curves were generated from the resultant mean fluorescence intensity (MFI) values obtained through detection of labelled secondary antibody to bound CD3 in flow cytometry experiments (FIGS. 3A and 3B). Both commercial mouse anti-human CD3 mAb (OKT-3; Biolegend) and an in house generated IgG1 version of OKT-3 were employed as positive controls together with a non-specific mouse IgG serving as a negative binding control. Following curve fit analysis using one-site specific binding with Hill slope, the KDapp (concentration needed to achieve a half-maximum binding at equilibrium) for each mAb was calculated (Table 2).
# Eight point binding titrations were performed with the anti-CD3 mAbs starting at either 300 or 100 nM on freshly purified human T cells obtained through negative selection from PBMC fractions. Briefly, 1×10⁵ human T cells (50 μL of staining buffer (SB; PBS/1% BSA/0.01% NaN3) were incubated with graded dilutions of the anti-CD3 mAbs in SB ([…]) for 2 hours at 4° C. in 96 w U-bottom plates, followed by plate washing with SB ([…]). Cell pellets were resuspended with 25 μL of a 0.25 mg/mL solution of the goat (Fab′)₂ anti-mouse IgG (H+L)− APC secondary antibody in SB, incubated at 4° C. (30 min.), washed 1× with SB, and resuspended for flow analysis. Recombinant anti-human OKT-3 IgG2b (in house produced) and non-specific mIgG were employed similarly as positive and negative controls respectively. 10K live events were acquired on a BD LSRFortessa flow analyzer and mean fluorescence intensities (MFI) calculated after subtraction of secondary antibody alone values. Using GraphPad Prism software, the data were analyzed using a one site specific binding with Hill slope non-linear regression model to calculate KDapp and BMax values (See Table 2).
# [9] = molecular target: T2, human CD3; test: flow competition on Jurkat, 100 nM unlabeled mAb; competitor AF488-SP34.2 20 nM
# Method: as §1, §2
# T1 sequence (Q95LI5 22-198, chain 1 of 3): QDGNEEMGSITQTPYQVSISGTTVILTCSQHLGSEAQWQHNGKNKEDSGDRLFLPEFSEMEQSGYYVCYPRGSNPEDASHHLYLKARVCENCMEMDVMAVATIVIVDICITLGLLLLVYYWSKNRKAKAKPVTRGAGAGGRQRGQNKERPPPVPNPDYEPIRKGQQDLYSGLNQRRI
# T1 sequence (Q95LI7 23-181, chain 2 of 3): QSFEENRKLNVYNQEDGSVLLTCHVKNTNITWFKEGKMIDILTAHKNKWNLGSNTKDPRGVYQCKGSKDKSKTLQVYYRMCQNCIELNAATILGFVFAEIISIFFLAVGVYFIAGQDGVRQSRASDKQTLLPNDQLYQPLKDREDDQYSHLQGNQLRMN
# T1 sequence (Q95LI8 22-171, chain 3 of 3): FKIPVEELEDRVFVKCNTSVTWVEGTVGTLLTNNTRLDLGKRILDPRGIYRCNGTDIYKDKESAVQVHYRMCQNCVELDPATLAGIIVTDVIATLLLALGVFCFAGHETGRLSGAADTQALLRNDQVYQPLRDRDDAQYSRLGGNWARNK
Binder,Kd [1] [nM],% residual fluorescence of labeled mAb [2] [%],MFI [3] [MFI],% residual fluorescence of labeled mAb [4] [%],% residual fluorescence of labeled mAb [5] [%],Kd [6] [nM],% max ref. OKT3 (dTomato activation) [7] [%],"EC50 of dTomato induction (CD69 promoter), Jurkat-CD69-dTomato cells, 24 h [7] [µg/mL]",Kd [8] [nM],% residual fluorescence of labeled mAb [9] [%]
"F332-7E3 (antibody, mouse IgG2a, V domains shown, also called F332-7E3-2) VH: QVQLQQPGAELGKPGTSVKLSCKASGYTFTSYWIHWVKQRPGQGLEWIGNINPNSGSINYNEKFKSKATLTVDKSSSTAYMQLSTLTSEDFAVYYCTRDTSGQYYFDYWGQGTTLTVSS VL: DIVMSQSPSSLAVSAGEKVTMSCKSSQSLLNSRTRKNYLAWYQQKPGQSPKLLIYWASTRESGVPDRFTGSGSGTDFTLTISSVQAEDLAVYYCKQSYHLRTFGGGTKLEIK",0.31,45,354,67,79,1.3,75,0.24,0.22,12
"F332-8F7 (antibody, mouse IgG2a, V domains shown, also called F332-8F7-3) VH: QVQLQQPGAELGKPGTSVKLSCKASGYTFTSYWIHWVKQRPGQGLEWIGNINPNSGSTNYNEKFKNKATLTVDKSSSTASMQLSTLTSEDSAVYYCTRDISGQYYFDYWGQGTTLTVSS VL: DIVMSQSPSSLAVSTGGEVTMSCKSSQSLLNSRTRKNYLAWYQQKPGQSPKLLIYWASTRESGVPDRFTGSGSGTDFTLTISSVQAEDLAVYYCIQSYSLRTFGGGTKLGIK",0.97,39,312,59,87,0.8,80,0.22,0.26,10
"F332-12F6 (antibody, mouse IgG2a, V domains shown, also called F332-12F6-2) VH: QVQLQQPGAELGKPGTSVKLSCKASGYTFTSYWIHWVKQRPGQGLEWIGNINPNSGSTNYNEKFKSKATLTVDKSSSTAYMQLSTLTSEDSAVYYCTRDISGQYYFDYWGQGTTLTVSS VL: DIVMSQSPSSLAVSAGEKVTMSCKSSQSLLNSRTRKSYLAWYQQKPGQSPKLLIYWASTRESGVPDRFTGSGSGTDFTLTISSVQAEDLAVYYCIQSYNLRTFGGGTKLEIK",0.61,42,369,63,82,0.6,87,0.25,0.2,7
"F332-7B7 (antibody, mouse IgG2a, V domains shown, also called F332-7B7-2) VH: QVQLQQPGTELGKPGTSVKLSCKASGYTFTNYWMHWVKQRPGQGLEWIGNINPNSGSTNYNQKFKSKATLTLDKSSSTAYMQFSTLTSEDSAVYYCTRDSSGQYYFDYWGQGTTLTVSS VL: DIVMSQSPSSLAVSAGEKVTMSCKSSQSLLNSRTRKNYLAWYQQKPGQSPKLLIYWASTRESGVPDRFTGSGSGTDFTLTISSVQAEDLAVYYCIQSFHLRTFGGGTKLEIK",0.28,53,302,79,86,0.6,97,0.25,0.23,9
